Experimental data from paper PMC7831362 (mAbs, 2021).

Assays:
[1] = biological target: natively expressed mouse PD-L1 on mouse tumor cells (Mus musculus (endogenous in Renca cells), UniProt Q9EP73); test: flow cytometry on cells
[2] = biological target: recombinant mouse PD-L1–human Fc chimeric fusion protein (mouse, UniProt Q9EP73 19-239, conjugated with europium cryptate trisbipyridine–N-hydroxysuccinimide); test: AlphaScreen or HTRF
recombinant mouse PD-L1–human Fc chimeric fusion protein, sequence (Q9EP73 19-239, change not shown): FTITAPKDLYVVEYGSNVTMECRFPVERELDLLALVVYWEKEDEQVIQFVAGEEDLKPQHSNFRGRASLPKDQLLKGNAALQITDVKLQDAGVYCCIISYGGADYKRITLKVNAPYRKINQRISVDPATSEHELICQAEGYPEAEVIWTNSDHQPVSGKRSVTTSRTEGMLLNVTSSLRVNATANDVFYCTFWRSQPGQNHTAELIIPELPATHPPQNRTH

natively expressed mouse PD-L1 on mouse tumor cells, sequence (Q9EP73 19-290): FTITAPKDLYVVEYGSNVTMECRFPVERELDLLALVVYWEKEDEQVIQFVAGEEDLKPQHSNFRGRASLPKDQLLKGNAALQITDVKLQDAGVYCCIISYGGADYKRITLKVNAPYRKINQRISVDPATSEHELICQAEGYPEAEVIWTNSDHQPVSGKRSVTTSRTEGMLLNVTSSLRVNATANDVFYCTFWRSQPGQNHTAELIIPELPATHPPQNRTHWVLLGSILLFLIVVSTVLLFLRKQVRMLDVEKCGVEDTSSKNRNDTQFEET

Row | binding result [1] | binding result [2] | Binder
1 | binds | – | anti-mouse PD-L1 hybridoma clone 17 (antibody, V domains shown) VH: EVQLVESGGGLVQPGASLKLSCVASGFTFSDYWMSWVRQNPGKTMEWIGDIKYDGSYTDYAPSLKNRFTISRDNAKSTLYLQMSNVRSEDTATYYCTRATGRRDGYYPTDYFDYWGQGVMVTVSS VL: DIVLTQSPALAVSLGQRATISCWASQSVSISRYNLMHWYQQKPGQQPKLLIYRASNLAGIPPRFSGSGSGTDFTLTINPVQADDIATYYCQQSRESPNTFGAGTKLELK
2 | – | binds | recombinant mouse B7-1/CD80 Fc chimera His-tag protein (Fc fusion, UniProt Q00609 38-246, looked up, conjugated with DyLight-650) VDEQLSKSVKDKVLLPCRYNSPHEDESEDRIYWQKHDKVVLSVIAGKLKVWPEYKNRTLYDNTTYSLIILGLVLSDRGTYSCVVQKKERGTYEVKHLALVKLSIKADFSTPNITESGNPSADTKRITCFASGGFPKPRFSWLENGRELPGINTTISQDPESELYTISSQLDFNTTRNHTIKCLIKYGDAHVSEDFTWEKPPEDPPDSKN
